From PMC3375153, “The Role of Arg13 in Protein Phosphatase M tPphA from Thermosynechococcus elongatus” (Enzyme Research, 2012)

B1: tPphA (Thermosynechococcus vestitus BP-1; R13N) (protein)
chain: MDVAGLTDCGLINKSNQDAFYIDEKHQRFFIVADGMGGHAGGEEASRLAVDHIRQYLETHLEDLQHDPVTLLRQAFLAANHAIVEQQRQNSARADMGTTAVVILLDEKGDRAWCAHVGDSRIYRWRKDQLQQITSDHTWIAQAVQLGSLTIEQARQHPWRHVLSQCLGREDLSQIDIQPIDLEPGDRLLLCSDGLTEELTDDVISIYLSEPNVQKAAAALVDAAKTHGGRDNVTVVVISV
B2: tPphA (Thermosynechococcus vestitus BP-1) (protein)
chain: MDVAGLTDCGLIRKSNQDAFYIDEKHQRFFIVADGMGGHAGGEEASRLAVDHIRQYLETHLEDLQHDPVTLLRQAFLAANHAIVEQQRQNSARADMGTTAVVILLDEKGDRAWCAHVGDSRIYRWRKDQLQQITSDHTWIAQAVQLGSLTIEQARQHPWRHVLSQCLGREDLSQIDIQPIDLEPGDRLLLCSDGLTEELTDDVISIYLSEPNVQKAAAALVDAAKTHGGRDNVTVVVISV
B3: tPphA (Thermosynechococcus vestitus BP-1; R13S) (protein)
chain: MDVAGLTDCGLISKSNQDAFYIDEKHQRFFIVADGMGGHAGGEEASRLAVDHIRQYLETHLEDLQHDPVTLLRQAFLAANHAIVEQQRQNSARADMGTTAVVILLDEKGDRAWCAHVGDSRIYRWRKDQLQQITSDHTWIAQAVQLGSLTIEQARQHPWRHVLSQCLGREDLSQIDIQPIDLEPGDRLLLCSDGLTEELTDDVISIYLSEPNVQKAAAALVDAAKTHGGRDNVTVVVISV
B4: tPphA (Thermosynechococcus vestitus BP-1; R13A) (protein)
chain: MDVAGLTDCGLIAKSNQDAFYIDEKHQRFFIVADGMGGHAGGEEASRLAVDHIRQYLETHLEDLQHDPVTLLRQAFLAANHAIVEQQRQNSARADMGTTAVVILLDEKGDRAWCAHVGDSRIYRWRKDQLQQITSDHTWIAQAVQLGSLTIEQARQHPWRHVLSQCLGREDLSQIDIQPIDLEPGDRLLLCSDGLTEELTDDVISIYLSEPNVQKAAAALVDAAKTHGGRDNVTVVVISV
B5: tPphA (Thermosynechococcus vestitus BP-1; R13P) (protein)
chain: MDVAGLTDCGLIPKSNQDAFYIDEKHQRFFIVADGMGGHAGGEEASRLAVDHIRQYLETHLEDLQHDPVTLLRQAFLAANHAIVEQQRQNSARADMGTTAVVILLDEKGDRAWCAHVGDSRIYRWRKDQLQQITSDHTWIAQAVQLGSLTIEQARQHPWRHVLSQCLGREDLSQIDIQPIDLEPGDRLLLCSDGLTEELTDDVISIYLSEPNVQKAAAALVDAAKTHGGRDNVTVVVISV
B6: tPphA (Thermosynechococcus vestitus BP-1; R13G) (protein)
chain: MDVAGLTDCGLIGKSNQDAFYIDEKHQRFFIVADGMGGHAGGEEASRLAVDHIRQYLETHLEDLQHDPVTLLRQAFLAANHAIVEQQRQNSARADMGTTAVVILLDEKGDRAWCAHVGDSRIYRWRKDQLQQITSDHTWIAQAVQLGSLTIEQARQHPWRHVLSQCLGREDLSQIDIQPIDLEPGDRLLLCSDGLTEELTDDVISIYLSEPNVQKAAAALVDAAKTHGGRDNVTVVVISV
B7: tPphA (Thermosynechococcus vestitus BP-1; R13Y) (protein)
chain: MDVAGLTDCGLIYKSNQDAFYIDEKHQRFFIVADGMGGHAGGEEASRLAVDHIRQYLETHLEDLQHDPVTLLRQAFLAANHAIVEQQRQNSARADMGTTAVVILLDEKGDRAWCAHVGDSRIYRWRKDQLQQITSDHTWIAQAVQLGSLTIEQARQHPWRHVLSQCLGREDLSQIDIQPIDLEPGDRLLLCSDGLTEELTDDVISIYLSEPNVQKAAAALVDAAKTHGGRDNVTVVVISV
B8: tPphA (Thermosynechococcus vestitus BP-1; R13Q) (protein)
chain: MDVAGLTDCGLIQKSNQDAFYIDEKHQRFFIVADGMGGHAGGEEASRLAVDHIRQYLETHLEDLQHDPVTLLRQAFLAANHAIVEQQRQNSARADMGTTAVVILLDEKGDRAWCAHVGDSRIYRWRKDQLQQITSDHTWIAQAVQLGSLTIEQARQHPWRHVLSQCLGREDLSQIDIQPIDLEPGDRLLLCSDGLTEELTDDVISIYLSEPNVQKAAAALVDAAKTHGGRDNVTVVVISV
B9: tPphA (Thermosynechococcus vestitus BP-1; R13H) (protein)
chain: MDVAGLTDCGLIHKSNQDAFYIDEKHQRFFIVADGMGGHAGGEEASRLAVDHIRQYLETHLEDLQHDPVTLLRQAFLAANHAIVEQQRQNSARADMGTTAVVILLDEKGDRAWCAHVGDSRIYRWRKDQLQQITSDHTWIAQAVQLGSLTIEQARQHPWRHVLSQCLGREDLSQIDIQPIDLEPGDRLLLCSDGLTEELTDDVISIYLSEPNVQKAAAALVDAAKTHGGRDNVTVVVISV
B10: tPphA (Thermosynechococcus vestitus BP-1; R13K) (protein)
chain: MDVAGLTDCGLIKKSNQDAFYIDEKHQRFFIVADGMGGHAGGEEASRLAVDHIRQYLETHLEDLQHDPVTLLRQAFLAANHAIVEQQRQNSARADMGTTAVVILLDEKGDRAWCAHVGDSRIYRWRKDQLQQITSDHTWIAQAVQLGSLTIEQARQHPWRHVLSQCLGREDLSQIDIQPIDLEPGDRLLLCSDGLTEELTDDVISIYLSEPNVQKAAAALVDAAKTHGGRDNVTVVVISV
B11: tPphA (Thermosynechococcus vestitus BP-1; R13C) (protein)
chain: MDVAGLTDCGLICKSNQDAFYIDEKHQRFFIVADGMGGHAGGEEASRLAVDHIRQYLETHLEDLQHDPVTLLRQAFLAANHAIVEQQRQNSARADMGTTAVVILLDEKGDRAWCAHVGDSRIYRWRKDQLQQITSDHTWIAQAVQLGSLTIEQARQHPWRHVLSQCLGREDLSQIDIQPIDLEPGDRLLLCSDGLTEELTDDVISIYLSEPNVQKAAAALVDAAKTHGGRDNVTVVVISV

Substrate: O=[N+]([O-])c1ccc(OP(=O)(O)O)cc1
Assay: chromogenic phosphatase assay, A400
Type: biochemical, Thermosynechococcus vestitus
Conditions: 50 mM Tris-HCl pH 8.3, 50 mM NaCl, 1 mM DTT, 2 mM MnCl2, 30 °C, pNPP 0.1-10 mM
Source text: chromogenic phosphatase assay, A400 on tPphA

Point of comparison: B1, Km 4.73 ± 0.53 mM. Against it:
- B2 — 4.5-fold lower, 1.06 ± 0.05 mM
- B3 — within 1.5-fold, 3.85 ± 0.32 mM
- B4 — within error, 5.11 ± 0.23 mM
- B5 — within error, 4.77 ± 0.17 mM
- B6 — within 1.5-fold, 3.58 ± 0.22 mM
- B7 — within error, 4.31 ± 0.28 mM
- B8 — within error, 4.06 ± 0.21 mM
- B9 — within 1.5-fold, 3.30 ± 0.17 mM
- B10 — 3.4-fold lower, 1.39 ± 0.10 mM
- B11 — within error, 4.27 ± 0.39 mM

Point of comparison: B8, kcat 0.5 ± 0.01 s⁻¹. Against it:
- B1 — 1.6-fold higher, 0.81 ± 0.04 s⁻¹
- B2 — 4.5-fold higher, 2.25 ± 0.1 s⁻¹
- B3 — 2.1-fold higher, 1.06 ± 0.04 s⁻¹
- B4 — 3.1-fold higher, 1.56 ± 0.03 s⁻¹
- B5 — 2-fold higher, 1.01 ± 0.02 s⁻¹
- B6 — 2.3-fold higher, 1.17 ± 0.03 s⁻¹
- B7 — within 1.5-fold, 0.42 ± 0.01 s⁻¹
- B9 — within 1.5-fold, 0.64 ± 0.01 s⁻¹
- B10 — 2.4-fold higher, 1.22 ± 0.03 s⁻¹
- B11 — 1.6-fold higher, 0.79 ± 0.01 s⁻¹

Point of comparison: B3, kcat/Km 275 ± 10 M⁻¹ s⁻¹. Against it:
- B1 — 1.6-fold lower, 171 ± 8 M⁻¹ s⁻¹
- B2 — 7.7-fold higher, 2120 ± 94 M⁻¹ s⁻¹
- B4 — within 1.5-fold, 305 ± 6 M⁻¹ s⁻¹
- B5 — within 1.5-fold, 212 ± 4 M⁻¹ s⁻¹
- B6 — within 1.5-fold, 327 ± 8 M⁻¹ s⁻¹
- B7 — 2.8-fold lower, 97 ± 2 M⁻¹ s⁻¹
- B8 — 2.2-fold lower, 123 ± 2 M⁻¹ s⁻¹
- B9 — within 1.5-fold, 194 ± 3 M⁻¹ s⁻¹
- B10 — 3.2-fold higher, 878 ± 21 M⁻¹ s⁻¹
- B11 — within 1.5-fold, 185 ± 2 M⁻¹ s⁻¹
